# In the supplement of paper PMC10724198:
# ± gives the standard deviation of the averaged measurements.
# Tested on: Saccharomyces cerevisiae
# Assay: protein stability index of tFT-peptide fusion (C-terminal peptide) (PSI (0-1 scale)); higher = more stable (slower turnover)
# Settings: genetic background: wild type; temperature: 30 C
# 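Further: PSI is a weighted mean of sequencing reads over stability bins, variants kept only with over 10 reads, mCherry proximal and sfGFP distal, peptide attached via GGGS linker.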
row,Sequence,protein stability index
1,CFLVLFAHPFVL,0.555 ± 0.007
2,GGWGRRRLDGGR,0.7221 ± 0.0064
3,ILVSRQGRGMRS,0.643 ± 0.013
4,GGSWGVGGVFVR,0.658 ± 0.03
5,PPLRLRLPPAVL,0.629 ± 0.095
6,MNFCLGVFVDLA,0.6857 ± 0.0037
7,PSDPTPSVPPIV,0.6647 ± 0.001
8,FPLPLPVLSSPS,0.646 ± 0.15
9,IIPEPTKFSRQR,0.7059 ± 0.0026
10,SSEGTRTLIPPD,0.7 ± 0.011
11,PPPRPPPRPLPP,0.669 ± 0.024
12,CFGVSVYIGLGV,0.588 ± 0.011
13,LTGGNPLTQDGD,0.689 ± 0.019
14,GFCCPMFLALFS,0.587 ± 0.022
15,RASPVSSFSPPS,0.679 ± 0.041
16,RRPPVFCIPLFS,0.639 ± 0.015
17,LPRPPPFSPPPP,0.651 ± 0.11
18,KIIKKKKKNKEH,0.596 ± 0.055
19,LLWGSSPDGGQG,0.694 ± 0.019
20,HECVRGLSFVLV,0.668 ± 0.081
21,SGRDWYHSLGGA,0.742 ± 0.052
22,FPHPPPSLPSPR,0.789 ± 0.064
23,SFFSPFPSRICS,0.829 ± 0.032
24,NVACNGKGEQVL,0.7268 ± 0.0011
25,NLAVSFIVGGLW,0.747 ± 0.026
26,TQGPTAPADPCS,0.67049 ± 0.00033

row,Sequence,protein stability index
1,PPRPRPRPLSPP,0.65 ± 0.039
2,RSRNAHAPPLAG,0.764 ± 0.065
3,WARVESFTSKTQ,0.6028 ± 0.0045
4,GVCLQGRRASGE,0.693 ± 0.091
5,WGFWLCSGNWST,0.725 ± 0.0088
6,KTKEYKYEKRKT,0.596 ± 0.027
7,SGAGGGVWWGGV,0.73 ± 0.0092
8,GSSAPSYTIGPE,0.682 ± 0.017
9,RNNLSLALPREW,0.725 ± 0.018
10,YLCRLHLGGLSS,0.602 ± 0.0075
11,SSSCRCSRVIGR,0.589 ± 0.064
12,LFLPLPGPLRSS,0.79 ± 0.13
13,EKKKKKAKKEKN,0.764 ± 0.045
14,SLDILVSVDGRL,0.6546 ± 0.001
15,GGGGGGLTGRVG,0.711 ± 0.009
16,PPFVSPQRQRLV,0.669 ± 0.019
17,GMRGGGRAQDAR,0.6609 ± 0.002
18,GASDWVMLYWVV,0.584 ± 0.0098
19,GWRACWVRAPRW,0.708 ± 0.018
20,DIERSAAPRLLL,0.727 ± 0.042
21,PPPRPPSPPPPP,0.672 ± 0.051
22,PLPPRPAPPSSS,0.681 ± 0.015
23,PGIHRPLAVEDL,0.676 ± 0.032
24,TGDTIQNTNCEM,0.689 ± 0.027
25,RKIRIDKQRKVK,0.716 ± 0.033
26,RKAKHWKNKIQK,0.737 ± 0.048

row,Sequence,protein stability index
1,RVYGSFFYVSLL,0.66 ± 0.13
2,CGCVAVNSFPVL,0.69 ± 0.011
3,TPPPSPPQPLPP,0.642 ± 0.043
4,CGVGWSWTWSGW,0.698 ± 0.078
5,VLPPPPTRPLLP,0.743 ± 0.019
6,EGVVGGRWCGRG,0.676 ± 0.082
7,RICIGSLHGASI,0.576 ± 0.019
8,CGLLEGGRCRKE,0.7922 ± 0.0071
9,YAGGLWEGYRHW,0.636 ± 0.063
10,TVGKGCGGAEGG,0.6439 ± 0.0029
11,RLAAPPRYPPLP,0.731 ± 0.12
12,PCLGATSNTGRY,0.732 ± 0.045
13,GIVVEELIFCGR,0.63 ± 0.0087
14,PVYSIARLVPGV,0.693 ± 0.029
15,VWCGVLVRSCWV,0.52 ± 0.0091
16,EQGIRHVRAIVV,0.539 ± 0.012
17,LPVPFFPPCPFR,0.732 ± 0.012
18,SMVGYPLPVSRN,0.671 ± 0.039
19,PPLLPPPPRRPP,0.643 ± 0.0012
20,GLGLGGRGMRVV,0.687 ± 0.018
21,HRTLPPPPLTVP,0.579 ± 0.027
22,KRFDKEWEIWRS,0.733 ± 0.023
23,SLPFCFIPVAPF,0.756 ± 0.058
24,MLFWPPPSLRMP,0.701 ± 0.0083
25,KSGHYVVSYSGV,0.678 ± 0.0045
26,PPHPSPPTPPPH,0.687 ± 0.017

row,Sequence,protein stability index
1,QLCNQHCKMISD,0.662 ± 0.0082
2,HPPPPPRSLPLP,0.692 ± 0.08
3,AASVYAFLPGLY,0.651 ± 0.021
4,PISIAVPCVLPP,0.6654 ± 0.00093
5,APPHLVTYPLCP,0.66 ± 0.067
6,LVRLRRSLRLFL,0.539 ± 0.037
7,KQKQNKIKITTQ,0.656 ± 0.0077
8,ISGEISTLLKTR,0.71 ± 0.081
9,PSFPPLLSSSSI,0.763 ± 0.11
10,WVTGASRLVGRE,0.766 ± 0.13
11,VGLFMGSPFMET,0.693 ± 0.0087
12,DAPLGDLRAYTT,0.747 ± 0.028
13,GSRALYCIVPRF,0.661 ± 0.053
14,GGFLMVSPMDWA,0.703 ± 0.026
15,RRLNTRQERSNK,0.72 ± 0.032
16,EWTTEQRSVGPR,0.683 ± 0.02
17,RSFVEQQCVTYA,0.628 ± 0.11
18,RDLLPPLYLPSH,0.711 ± 0.039
19,IFRASTGASYRT,0.5738 ± 0.0034
20,VRGRQGGGVGRA,0.682 ± 0.1
21,GLFSGRCLCGGG,0.688 ± 0.025
22,PLHSRPTRPKLE,0.71 ± 0.092
23,KLPRPRHSDCPS,0.6505 ± 0.00069
24,ARNNVRKTEQQC,0.717 ± 0.11
25,QIRNNKPYSPSK,0.742 ± 0.0061
26,VFVGLFCVLGRV,0.523 ± 0.0079

row,Sequence,protein stability index
1,ILVSVLRFVRNR,0.691 ± 0.029
2,WGPGGRRGVGHV,0.727 ± 0.058
3,ASGKRSGPNPCR,0.72 ± 0.022
4,HLQLCAPISTTD,0.652 ± 0.07
5,PHASRRPPTLLC,0.514 ± 0.01
6,YVKEEEKKKESK,0.681 ± 0.079
7,PPPPPPSAPPPS,0.669 ± 0.026
8,LRGNDRLLSKRI,0.694 ± 0.022
9,LNNLTVVDVAGL,0.69 ± 0.017
10,DGHSAAAFCVRG,0.748 ± 0.1
11,PPNPFRHTPSIP,0.736 ± 0.027
12,AWWWGCSSIGYW,0.787 ± 0.085
13,CRGRWVAWSMGI,0.7221 ± 0.0019
14,DVCFIRRRYKKI,0.669 ± 0.041
15,DDSSSFPSLLSF,0.753 ± 0.069
16,GPVYPGSRPAFT,0.708 ± 0.092
17,GGGGLGWWEWDR,0.736 ± 0.071
18,PPPPSPPPIPSP,0.706 ± 0.04
19,GESRDEGRGVRA,0.638 ± 0.069
20,QKKKRTKNKNKR,0.6556 ± 0.0053
21,GLRENIFTDKKN,0.728 ± 0.06
22,SRGTTLDREQQR,0.687 ± 0.1
23,FFLLPHPSRFFP,0.734 ± 0.025
24,FCVFSFAAPGFP,0.6746 ± 0.00074
25,FPRFGRGVGRRT,0.67 ± 0.0073
26,HSPSKLSSSTAT,0.681 ± 0.032

row,Sequence,protein stability index
1,RVEIKNKKKIRT,0.696 ± 0.083
2,CKMGNQNIRLYV,0.599 ± 0.033
3,AGGGRGAEGCGG,0.783 ± 0.069
4,SGSGGGGMRLGS,0.701 ± 0.026
5,PPPSSPPPPAPL,0.694 ± 0.035
6,VLGFGGVVLFFL,0.642 ± 0.06
7,DICFGLLPPWPA,0.755 ± 0.057
8,PPSSPTRPSSPL,0.736 ± 0.051
9,GGGGGWGGGGGG,0.7 ± 0.087
10,VFLLCSLPTFWR,0.662 ± 0.062
11,ETKKGKKKKMTM,0.682 ± 0.0069
12,FDSLFVSLSFAI,0.661 ± 0.03
13,SLRPPSTFRRSC,0.71 ± 0.019
14,LPGCGSYLSGNV,0.651 ± 0.056
15,RACLKSRCIAMG,0.604 ± 0.065
16,GERGGKGHEQGL,0.623 ± 0.043
17,EEPVVSNPPLLA,0.688 ± 0.033
18,GRTSTVRSLVFT,0.666 ± 0.026
19,VRAVFPRSGLSC,0.696 ± 0.048
20,PPIPPALLLVSP,0.633 ± 0.0095
21,GLVLILRLFSRG,0.494 ± 0.056
22,SGWRYPFGCGAS,0.763 ± 0.1
23,VFLVESFSPPNA,0.701 ± 0.029
24,RVRLAPAPASIR,0.7458 ± 0.0047
25,KKTSKTERDQKE,0.639 ± 0.015
26,LTVRVTSQPFDL,0.658 ± 0.015

row,Sequence,protein stability index
1,THHQDGGRAAVR,0.67913 ± 0.00062
2,PLYPPPVNIPPT,0.81 ± 0.067
3,CIALLTPPCIIF,0.72 ± 0.065
4,KGDMSCWPSRPI,0.7137 ± 0.00075
5,SKKHIKKKQKRK,0.687 ± 0.053
6,QHTDNLLTHLMG,0.6551 ± 0.0028
7,EFFAPDVVALMR,0.692 ± 0.17
8,TEGKPQVDPFDH,0.704 ± 0.076
9,RTPQSPRVSVRN,0.6586 ± 0.0027
10,LPRNQPVPFPCH,0.677 ± 0.0094
11,NNSLKTTMVATK,0.58 ± 0.065
12,KGMVEESIIKRA,0.62084 ± 0.00038
13,NDLRRAVSARYV,0.676 ± 0.032
14,RLLSGLAHRATR,0.672 ± 0.032
15,GWRRSWVWDVGG,0.699 ± 0.027
16,PPSSPHAPTALP,0.685 ± 0.032
17,AGIGWGDLASPG,0.681 ± 0.025
18,YFAASFMSSSGI,0.76 ± 0.078
19,LKDITVWRPKRG,0.658 ± 0.12
20,ERYKKRGKTNKV,0.662 ± 0.0076
21,SPRWAPPLPAWP,0.712 ± 0.014
22,PPFLPASHPAPS,0.824 ± 0.065
23,HRIHRSLLTGGR,0.708 ± 0.021
24,SVGGSLFLGRRG,0.68 ± 0.072
25,IKKNRYYKRIII,0.657 ± 0.028
26,PPRHPPPSPLVA,0.668 ± 0.011

row,Sequence,protein stability index
1,TQSEHRTIPKSG,0.663 ± 0.0089
2,VGRIGNWRFGAG,0.695 ± 0.0084
3,VLRIIMQCVFVR,0.549 ± 0.0064
4,RVHRETLLPTGQ,0.644 ± 0.036
5,TRSLPPELTPRR,0.705 ± 0.021
6,IKPTRKKTISTR,0.715 ± 0.095
7,RKHIANPTDQND,0.673 ± 0.019
8,ISLGGNWHRVVT,0.649 ± 0.019
9,PPPVFPPLPVLS,0.598 ± 0.007
10,LSCLIPLPAPPL,0.662 ± 0.052
11,AIGDLQKAVPLM,0.718 ± 0.047
12,LSATGSCSPRRG,0.693 ± 0.014
13,LIKSEECKNTDI,0.704 ± 0.033
14,GSFGFGVTVVFW,0.5563 ± 0.0021
15,RGRDTETFSDNS,0.6901 ± 0.0054
16,WMCILESWDSVD,0.706 ± 0.099
17,VRRSHSGSNDVP,0.673 ± 0.14
18,RGFCGGLWRPGV,0.769 ± 0.013
19,MGPLHVMLQRAR,0.805 ± 0.16
20,CGVYPQLSGGFG,0.687 ± 0.018
